Numbering of substitutions follows the chain as printed.

Common to all, as to test: SPR, KD relative to WT C2;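 also: biacore SPR at 37 °C, anti-C2 mAbs captured via immobilised goat anti-human IgG, C2 alanine or serine surface mutants as analytes, 1:1 model fitted, double-referenced sensograms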
For orientation: SPR reads the build-up and loss of mass on a sensor chip optically.

The target of test [1] is T1, human C2 R519A (human, UniProt P06681 21-752).
T1 sequence: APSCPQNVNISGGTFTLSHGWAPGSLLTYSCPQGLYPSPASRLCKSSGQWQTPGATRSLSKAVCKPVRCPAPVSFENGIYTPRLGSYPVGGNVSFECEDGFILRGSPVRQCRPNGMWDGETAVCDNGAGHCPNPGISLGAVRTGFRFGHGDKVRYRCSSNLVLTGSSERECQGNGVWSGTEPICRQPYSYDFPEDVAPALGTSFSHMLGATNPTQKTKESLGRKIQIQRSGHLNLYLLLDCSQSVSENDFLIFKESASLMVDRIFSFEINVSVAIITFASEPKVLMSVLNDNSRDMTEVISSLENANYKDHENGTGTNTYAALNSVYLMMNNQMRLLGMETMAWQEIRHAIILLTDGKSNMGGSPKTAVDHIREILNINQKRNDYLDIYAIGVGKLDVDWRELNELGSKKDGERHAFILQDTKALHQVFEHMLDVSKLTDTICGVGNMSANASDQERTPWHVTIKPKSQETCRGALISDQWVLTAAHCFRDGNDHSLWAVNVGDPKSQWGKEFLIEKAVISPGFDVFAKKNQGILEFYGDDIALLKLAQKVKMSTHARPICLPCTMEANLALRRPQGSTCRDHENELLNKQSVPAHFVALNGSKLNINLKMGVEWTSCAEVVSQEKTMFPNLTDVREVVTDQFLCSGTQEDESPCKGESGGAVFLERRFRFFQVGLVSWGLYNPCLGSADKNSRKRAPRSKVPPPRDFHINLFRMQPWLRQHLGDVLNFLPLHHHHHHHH

Test [2] addresses T2, human C2 L701A (human, UniProt P06681 21-752).
T2 sequence: T1 sequence with A499R, L681A

Test [3] addresses T3, human C2 Y558A (human, UniProt P06681 21-752).
T3 sequence: T1 sequence with A499R, Y538A

Test [4] concerns the target T4, human C2 D511A (human, UniProt P06681 21-752).
T4 sequence: T1 sequence with D491A, A499R

B1: RF16-226 (antibody, human IgG4 S228P, lambda)
heavy: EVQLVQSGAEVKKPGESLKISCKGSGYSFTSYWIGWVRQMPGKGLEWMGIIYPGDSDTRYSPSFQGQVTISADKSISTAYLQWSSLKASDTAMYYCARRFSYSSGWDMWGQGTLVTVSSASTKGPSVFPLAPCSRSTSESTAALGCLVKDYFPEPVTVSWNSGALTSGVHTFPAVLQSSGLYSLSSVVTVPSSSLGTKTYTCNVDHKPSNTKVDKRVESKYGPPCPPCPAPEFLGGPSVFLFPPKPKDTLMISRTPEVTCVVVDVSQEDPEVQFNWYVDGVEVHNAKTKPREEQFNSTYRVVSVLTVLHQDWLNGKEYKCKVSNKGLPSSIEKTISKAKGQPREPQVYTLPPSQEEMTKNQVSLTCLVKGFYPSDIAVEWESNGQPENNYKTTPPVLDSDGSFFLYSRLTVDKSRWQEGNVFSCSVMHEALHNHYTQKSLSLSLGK
light: SYELTQPPSVSVSPGQTARITCSGDALTSKYVAWYQQKSGLAPLLVIYEDTRRPSGIPAKFSGSSSGSVATLTISGAHGDDEADYYCYSTDASGHQRVFGGGTKLTVLSQPKAAPSVTLFPPSSEELQANKATLVCLISDFYPGAVTVAWKADGSPVKAGVETTKPSKQSNNKYAASSYLSLTPEQWKSHRSYSCQVTHEGSTVEKTVAPTECS
notes: pH-dependent anti-C2 antibody from a phage display library; also called WT
On to B1, for which the Fold diff in test [1] was found to be 1 fold; in test [2] it was 16 fold; in test [3], 16 fold; in test [4], 3 fold.

The values above are taken from patent US20220332804A1 (CSL INNOVATION, published 2022).
